For 35 molecules, Kd results are on record in article PMC10786891, “Massively parallel profiling of RNA-targeting CRISPR-Cas13d”.

To fix the notation:
T1: EsCas13d, nuclease-dead (Eubacterium siraeum, UniProt B0MS50, R295A;H300A;R849A;H854A)
T1 sequence: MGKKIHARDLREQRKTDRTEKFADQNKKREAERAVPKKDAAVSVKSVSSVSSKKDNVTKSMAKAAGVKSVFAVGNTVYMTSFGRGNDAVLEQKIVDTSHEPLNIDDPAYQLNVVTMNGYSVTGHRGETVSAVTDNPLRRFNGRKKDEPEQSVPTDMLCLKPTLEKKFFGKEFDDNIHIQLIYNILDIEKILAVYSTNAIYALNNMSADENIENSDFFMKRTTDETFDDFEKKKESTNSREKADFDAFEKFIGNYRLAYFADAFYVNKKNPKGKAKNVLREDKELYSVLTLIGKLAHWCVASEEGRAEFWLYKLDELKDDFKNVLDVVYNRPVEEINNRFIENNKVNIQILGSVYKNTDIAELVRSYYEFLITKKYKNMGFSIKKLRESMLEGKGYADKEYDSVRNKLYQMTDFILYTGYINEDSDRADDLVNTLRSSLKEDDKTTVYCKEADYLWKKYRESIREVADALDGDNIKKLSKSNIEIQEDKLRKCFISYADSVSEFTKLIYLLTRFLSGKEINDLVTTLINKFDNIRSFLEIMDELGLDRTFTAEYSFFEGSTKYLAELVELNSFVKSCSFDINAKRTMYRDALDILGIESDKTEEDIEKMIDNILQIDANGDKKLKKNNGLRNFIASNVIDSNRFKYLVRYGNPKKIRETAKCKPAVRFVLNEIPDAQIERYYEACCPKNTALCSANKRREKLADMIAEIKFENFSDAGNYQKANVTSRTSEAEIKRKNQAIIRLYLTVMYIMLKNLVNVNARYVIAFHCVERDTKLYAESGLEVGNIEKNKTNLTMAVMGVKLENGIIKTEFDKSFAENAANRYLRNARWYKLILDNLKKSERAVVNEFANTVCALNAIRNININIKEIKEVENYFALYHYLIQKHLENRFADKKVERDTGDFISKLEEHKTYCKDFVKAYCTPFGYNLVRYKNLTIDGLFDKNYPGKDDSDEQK

B1: target 1 insC 3' of 19,insG 3' of 4 (mixed)
RNA 1: CACCCGUGCAAAAAUGCAGGGGUCUAAAACUGAGCGGAUAACCUCUCUAUGG
RNA 2: GGGAAUGGAUCCACAUCUACGAAUUCGUACCAUCAGAGAGGUUAUCCGCGUCACCGAGAUCGGAAGAGCACACGU
B2: target 1 insG 3' of 20,insU 3' of 7 (mixed)
RNA 1: B1 RNA 1
RNA 2: B1 RNA 2 with U33G, C34U, C47U, G48C, C49G, G50C
B3: target 1 insU 3' of 13,insG 3' of 7 (mixed)
RNA 1: B1 RNA 1
RNA 2: GGGAAUGGAUCCACAUCUACGAAUUCGUACCAUAGAGAGUGUUAUCGCGCUCACCGAGAUCGGAAGAGCACACGU
B4: target 1 insA 3' of 13,insU 3' of 13 (mixed)
RNA 1: B1 RNA 1
RNA 2: B3 RNA 2 with U40A, G41U, U42G, A44U, U45A, C46U, G47C
B5: target 1 complement block 1-14 (mixed)
RNA 1: B1 RNA 1
RNA 2: GGGAAUGGAUCCACAUCUACGAAUUCGUACCAUAGAGUCCAAUAGGCGAGUCCGAGAUCGGAAGAGCACACGU
B6: target 2 MT 5'PFS UAA 3'PFS CCG (mixed)
RNA 1: CACCCGUGCAAAAUUGCAGGGGUCUAAAACCUUCUCCAAAUUGUUUCAUCCU
RNA 2: GGGAAUGGAUCCACAUCUACGAAUUCUAAAGGAUGAAACAAUUUGGAGAAGCCGAGAUCGGAAGAGCACACGU
B7: target 2 MT 5'PFS GUG 3'PFS CGG (mixed)
RNA 1: B6 RNA 1
RNA 2: B6 RNA 2 with U27G, A28U, A29G, C53G
B8: target 2 MT 5'PFS GUG 3'PFS CGA (mixed)
RNA 1: B6 RNA 1
RNA 2: B6 RNA 2 with U27G, A28U, A29G, C53G, G54A
B9: target 2 MT 5'PFS UGC 3'PFS CGC (mixed)
RNA 1: B6 RNA 1
RNA 2: B6 RNA 2 with A28G, A29C, C53G, G54C
B10: target 2 MT 5'PFS UAG 3'PFS AUU (mixed)
RNA 1: B6 RNA 1
RNA 2: B6 RNA 2 with A29G, C52A, C53U, G54U
B11: target 2 MT 5'PFS GAA 3'PFS AAA (mixed)
RNA 1: B6 RNA 1
RNA 2: B6 RNA 2 with U27G, C52A, C53A, G54A
B12: target 2 MT 5'PFS UAU 3'PFS AUG (mixed)
RNA 1: B6 RNA 1
RNA 2: B6 RNA 2 with A29U, C52A, C53U
B13: target 2 MT 5'PFS AUG 3'PFS CCU (mixed)
RNA 1: B6 RNA 1
RNA 2: B6 RNA 2 with U27A, A28U, A29G, G54U
B14: target 2 MT 5'PFS UAG 3'PFS AUG (mixed)
RNA 1: B6 RNA 1
RNA 2: B6 RNA 2 with A29G, C52A, C53U
B15: target 2 MT 5'PFS UAG 3'PFS AUC (mixed)
RNA 1: B6 RNA 1
RNA 2: B6 RNA 2 with A29G, C52A, C53U, G54C
B16: target 2 MT 5'PFS UGC 3'PFS CGA (mixed)
RNA 1: B6 RNA 1
RNA 2: B6 RNA 2 with A28G, A29C, C53G, G54A
B17: target 2 MT 5'PFS UAU 3'PFS AUA (mixed)
RNA 1: B6 RNA 1
RNA 2: B6 RNA 2 with A29U, C52A, C53U, G54A
B18: target 2 MT 5'PFS CAC 3'PFS AGU (mixed)
RNA 1: B6 RNA 1
RNA 2: B6 RNA 2 with U27C, A29C, C52A, C53G, G54U
B19: target 2 MT 5'PFS GGG 3'PFS UAG (mixed)
RNA 1: B6 RNA 1
RNA 2: B6 RNA 2 with U27G, A28G, A29G, C52U, C53A
B20: target 2 MT 5'PFS GGG 3'PFS UAU (mixed)
RNA 1: B6 RNA 1
RNA 2: B6 RNA 2 with U27G, A28G, A29G, C52U, C53A, G54U
B21: target 2 MT 5'PFS GUG 3'PFS CGC (mixed)
RNA 1: B6 RNA 1
RNA 2: B6 RNA 2 with U27G, A28U, A29G, C53G, G54C
B22: target 2 MT 5'PFS AAU 3'PFS CCA (mixed)
RNA 1: B6 RNA 1
RNA 2: B6 RNA 2 with U27A, A29U, G54A
B23: target 2 MT 5'PFS CAG 3'PFS CCA (mixed)
RNA 1: B6 RNA 1
RNA 2: B6 RNA 2 with U27C, A29G, G54A
B24: target 2 MT 5'PFS AUG 3'PFS CCG (mixed)
RNA 1: B6 RNA 1
RNA 2: B6 RNA 2 with U27A, A28U, A29G
B25: target 2 MT 5'PFS UGU 3'PFS UUU (mixed)
RNA 1: B6 RNA 1
RNA 2: B6 RNA 2 with A28G, A29U, C52U, C53U, G54U
B26: target 2 MT 5'PFS GGG 3'PFS UAC (mixed)
RNA 1: B6 RNA 1
RNA 2: B6 RNA 2 with U27G, A28G, A29G, C52U, C53A, G54C
B27: target 2 MT 5'PFS GAA 3'PFS AAC (mixed)
RNA 1: B6 RNA 1
RNA 2: B6 RNA 2 with U27G, C52A, C53A, G54C
B28: target 2 MT 5'PFS AUU 3'PFS CAU (mixed)
RNA 1: B6 RNA 1
RNA 2: B6 RNA 2 with U27A, A28U, A29U, C53A, G54U
B29: target 2 MT 5'PFS GUG 3'PFS CGU (mixed)
RNA 1: B6 RNA 1
RNA 2: B6 RNA 2 with U27G, A28U, A29G, C53G, G54U
B30: target 2 MT 5'PFS GAA 3'PFS AAU (mixed)
RNA 1: B6 RNA 1
RNA 2: B6 RNA 2 with U27G, C52A, C53A, G54U
B31: target 2 MT 5'PFS GAA 3'PFS AAG (mixed)
RNA 1: B6 RNA 1
RNA 2: B6 RNA 2 with U27G, C52A, C53A
B32: target 2 MT 5'PFS AUG 3'PFS CCA (mixed)
RNA 1: B6 RNA 1
RNA 2: B6 RNA 2 with U27A, A28U, A29G, G54A
B33: target 2 MT 5'PFS UGA 3'PFS CAC (mixed)
RNA 1: B6 RNA 1
RNA 2: B6 RNA 2 with A28G, C53A, G54C
B34: target 2 MT 5'PFS UAG 3'PFS AUA (mixed)
RNA 1: B6 RNA 1
RNA 2: B6 RNA 2 with A29G, C52A, C53U, G54A
B35: target 2 MT 5'PFS UAU 3'PFS AUU (mixed)
RNA 1: B6 RNA 1
RNA 2: B6 RNA 2 with A29U, C52A, C53U, G54U

Residue numbers refer to the chain shown, from its start.

The data set has as its target T1, EsCas13d, nuclease-dead. Description: crRNA (strand 1, pre-loaded); Mg2+; 40 mM Tris-HCl pH 7.5, 150 mM NaCl, 6 mM MgCl2, 1 mM DTT, 0.1% Tween-20, 0.2 mg/ml BSA; 25 C; 10 min per concentration, then washed. The note with it: tags: His6-TwinStrep-SUMO cleaved; N-terminal SNAP kept (SNAP-Surface 488); label: 3' end held by stalled T7 RNA polymerase.
On to B1, for which the Kd (as a rule, the free concentration of one partner at which half of the binding sites on the other are occupied at equilibrium, for simple one-to-one binding) is 21.5 ± 1.3 nM.
Regarding B2, the Kd was 90 ± 40 nM.
B3 came in with a dissociation constant (Kd) of 9.5 ± 0.5 nM.
Molecule B4 registered an equilibrium dissociation constant (Kd) of 14.2 ± 1.3 nM.
Molecule B5 gave a Kd of about 100 nM.
In turn, B6 gave a dissociation constant Kd of 5.6 ± 0.6 nM.
In the case of B7 it was 12.5 ± 1 nM; in that of B8, 12.8 ± 1.6 nM.
For B9, the Kd was 66 ± 11 nM.
The molecule B10 showed a Kd of 2.93 ± 0.34 nM.
For the molecule B11, the Kd amounted to 5.7 ± 1.1 nM.
As for B12, the dissociation constant Kd stood at 45 ± 9 nM.
In turn, B13 had a Kd of about 70 nM.
B14: the dissociation constant Kd stood at 3.21 ± 0.28 nM.
On to B15, for which binding was characterised by a dissociation constant (Kd) of 3.3 ± 0.7 nM.
The value for B16 was about 48 nM.
With B17, the Kd was 41 ± 7 nM.
As for B18, the Kd stood at 2.7 ± 0.6 nM.
For the molecule B19, the dissociation constant Kd is 8 ± 0.6 nM.
For B20, binding was characterised by a dissociation constant (Kd) of 9.6 ± 1 nM.
With B21, binding was put at a Kd of 9.5 ± 0.4 nM.
In the case of B22 it was 24 ± 12 nM; in that of B23, 10.1 ± 1.4 nM; in that of B24, 9.5 ± 1.1 nM.
B25 came in with a Kd of 50 ± 13 nM.
B26 yielded a Kd of 9.6 ± 0.7 nM.
B27: binding was put at a Kd of 11 ± 1.6 nM.
In the case of B28, binding was put at a Kd of 5.7 ± 0.7 nM.
For B29, the Kd came out at 14.7 ± 1.3 nM.
In the case of B30, the Kd stood at 16 ± 7 nM.
With B31, binding was put at a Kd of 8.2 ± 2.1 nM.
The molecule B32 yielded a Kd of 23.7 ± 3.5 nM.
As to B33, the dissociation constant Kd stood at 15 ± 4 nM.
The value for B34 was 2.63 ± 0.33 nM.
B35 showed a Kd of 24.8 ± 2.3 nM.
